T1: human BCMA on the surface of cell lines (NCI-H929, MM.1S, OPM-2, RPMI-8226, Daudi, Raji, MOLP-8, U266) (human, UniProt Q02223 1-184)
T1 sequence: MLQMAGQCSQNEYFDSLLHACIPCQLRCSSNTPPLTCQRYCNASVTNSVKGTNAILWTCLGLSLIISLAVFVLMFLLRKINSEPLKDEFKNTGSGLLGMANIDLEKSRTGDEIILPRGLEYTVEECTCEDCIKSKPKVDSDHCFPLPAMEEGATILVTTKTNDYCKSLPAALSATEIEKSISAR

T2: human BCMA-MFC (extracellular domain of human BCMA with C-terminal mFc tag) (human)
T2 construct: also called hBCMA.mFc
T2 chain: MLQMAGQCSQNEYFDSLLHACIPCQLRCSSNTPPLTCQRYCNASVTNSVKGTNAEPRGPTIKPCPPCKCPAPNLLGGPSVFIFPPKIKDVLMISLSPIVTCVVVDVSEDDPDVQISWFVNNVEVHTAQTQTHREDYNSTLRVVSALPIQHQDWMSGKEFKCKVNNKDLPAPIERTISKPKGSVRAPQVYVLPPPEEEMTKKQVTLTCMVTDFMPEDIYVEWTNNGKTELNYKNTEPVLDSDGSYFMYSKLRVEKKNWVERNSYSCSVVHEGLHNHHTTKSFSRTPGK

T3: mouse BCMA-MFC (BCMA with C-terminal mFc tag) (mouse)
T3 construct: Tested at a single concentration of 30 nM; also called mBCMA.mFc
T3 chain: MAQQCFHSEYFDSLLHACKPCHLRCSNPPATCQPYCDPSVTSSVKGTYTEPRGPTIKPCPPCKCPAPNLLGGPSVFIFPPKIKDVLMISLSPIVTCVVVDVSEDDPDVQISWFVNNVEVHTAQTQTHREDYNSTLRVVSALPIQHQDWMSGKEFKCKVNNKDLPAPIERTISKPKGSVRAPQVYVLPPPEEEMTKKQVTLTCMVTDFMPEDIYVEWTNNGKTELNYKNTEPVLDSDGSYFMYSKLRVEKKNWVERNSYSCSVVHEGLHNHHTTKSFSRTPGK

T4: human BCMA-MMH (extracellular domain of human BCMA with C-terminal myc-myc-hexahistidine tag) (human)
T4 construct: Monomeric antigen; also called hBCMA.mmh; hBCMA.mmH
T4 chain: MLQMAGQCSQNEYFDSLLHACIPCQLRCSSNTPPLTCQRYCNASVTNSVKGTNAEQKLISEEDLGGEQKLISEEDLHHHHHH


Tests used:
[1] = biological target: T1, human BCMA on the surface of cell lines …; experiment: cell-based or functional assay
[2] = biological target: T5, human CD3 on cells (Jurkat cells, primary human CD8+ T cells) (human, UniProt P07766 23-207; P04234 22-171; P20963 22-164; P09693 23-182); experiment: flow cytometry, primary human CD8+ T cells, median EC50, n=1
T5 construct: CD3 complex as part of the TCR on T cells; also called hCD3; Jurkat-hCD3
T5 sequence (P07766 23-207 limits assumed, chain 1 of 4): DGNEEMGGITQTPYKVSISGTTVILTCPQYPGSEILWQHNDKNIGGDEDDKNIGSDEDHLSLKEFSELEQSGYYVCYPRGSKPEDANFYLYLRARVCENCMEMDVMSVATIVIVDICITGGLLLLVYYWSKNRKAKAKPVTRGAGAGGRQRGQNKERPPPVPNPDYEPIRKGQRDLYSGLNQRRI
T5 sequence (P04234 22-171 limits assumed, chain 2 of 4): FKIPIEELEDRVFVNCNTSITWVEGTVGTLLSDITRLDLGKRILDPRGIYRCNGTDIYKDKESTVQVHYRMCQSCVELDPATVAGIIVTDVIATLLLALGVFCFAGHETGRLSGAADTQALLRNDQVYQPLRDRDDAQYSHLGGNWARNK
T5 sequence (P20963 22-164 limits assumed, chain 3 of 4): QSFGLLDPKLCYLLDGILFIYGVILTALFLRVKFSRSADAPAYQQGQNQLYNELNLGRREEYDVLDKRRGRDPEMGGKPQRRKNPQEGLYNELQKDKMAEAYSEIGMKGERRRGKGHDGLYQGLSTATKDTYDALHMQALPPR
T5 sequence (P09693 23-182 limits assumed, chain 4 of 4): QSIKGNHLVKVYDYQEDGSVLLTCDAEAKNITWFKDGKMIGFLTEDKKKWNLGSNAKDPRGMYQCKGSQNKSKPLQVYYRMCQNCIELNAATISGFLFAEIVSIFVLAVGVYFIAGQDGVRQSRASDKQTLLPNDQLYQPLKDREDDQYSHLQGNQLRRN
Description: Flow cytometric analysis was utilized to determine binding of BCMA×CD3 bispecific antibodies to human and cynomolgus CD3 (Jurkat cells, mfCD3 engineered Jurkat cells, primary human CD8+ and cynomolgus CD8+ T cells). Briefly, 1e05 cells/well were incubated in the presence of FACS wash with block (PBS+1% filtered FBS+5% mouse serum) with a serial dilution of BCMA×CD3 and control antibodies for 30 minutes on ice. After incubation, the cells were washed twice with cold FACS wash (PBS+1% filtered FBS) and bound antibody was detected by incubating with Alexa647-conjugated anti-human secondary antibody on ice for an additional 30 minutes. Wells containing no antibody or secondary only were used as a control. For the detection of monkey and human T cells, a cocktail of human and cynomolgus cross-reactive antibodies to CD4, CD8 and CD16 was added to the anti-human secondary. After incubation, cells were washed, re-suspended in 200 μL cold PBS containing 1% filtered FBS and analyzed by flow cytometry on a BD FACS Canto II. Cells were gated by FSC-H by FSC-A to select singlet events, followed by side and forward scatters to select for live events. For monkey T cells, additional gating on CD8+/CD16-cells was performed.
EC50 values for FACS binding were calculated using 4-parameter non-linear regression analysis in Prism software.

[3] = biological target: T1, human BCMA on the surface of cell lines …; experiment: cell-based or functional assay; remark: listed apart in the source
[4] = biological target: T6, monkey BCMA-MMH (monkey BCMA with C-terminal myc-myc-hexahistidine tag) (monkey); experiment: SPR Biacore, 25 C, mAb captured via anti-hFc
T6 construct: Monomeric antigen; also called mfBCMA.mmh
Description: (§1) The CM5 Biacore sensor surface was derivatized by amine coupling with a monoclonal mouse anti-human Fc antibody (GE, #BR-1008-39) to capture purified anti-BCMA mAbs and anti-BCMA×anti-CD3 bispecific mAbs. All Biacore binding studies were performed in a buffer composed of 0.01M HEPES pH 7.4, 0.15M NaCl, 3 mM EDTA, 0.05% v/v Surfactant P20 (HBS-ET running buffer). […] Antigen samples were then injected over the anti-BCMA and anti-BCMA×anti-CD3 bispecific mAbs captured surfaces at a flow rate of 30 μL/minute. Antibody-reagent association was monitored for 5 minutes while dissociation in HBS-ET running buffer was monitored for 10 minutes. All of the binding kinetics experiments were performed at 25° C. Kinetic association (kₐ) and dissociation (kd) rate constants were determined by fitting the real-time sensorgrams to a 1:1 binding model using Scrubber 2.0c curve fitting software. Binding dissociation equilibrium constants (KD) and dissociative half-lives (t1/2) were calculated from the kinetic rate constants as: […]

[5] = biological target: T2, human BCMA-MFC (extracellular domain of …); experiment: SPR Biacore, 25 C, mAb captured via anti-hFc
Description: as §1

[6] = biological target: T7, monkey BCMA-MFC (monkey BCMA with C-terminal mFc tag) (monkey); experiment: SPR Biacore, 25 C, mAb captured via anti-hFc
T7 construct: also called mfBCMA.mFc
T7 sequence (chain, as listed by the source limits assumed): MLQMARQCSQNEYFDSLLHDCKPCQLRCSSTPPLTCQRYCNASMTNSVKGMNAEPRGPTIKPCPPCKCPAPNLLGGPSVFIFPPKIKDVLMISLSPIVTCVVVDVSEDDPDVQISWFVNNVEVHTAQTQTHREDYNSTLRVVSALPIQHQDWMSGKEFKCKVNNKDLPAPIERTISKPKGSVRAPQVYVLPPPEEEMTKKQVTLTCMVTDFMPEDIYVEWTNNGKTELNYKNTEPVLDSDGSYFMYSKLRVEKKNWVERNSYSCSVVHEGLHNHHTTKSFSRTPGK
Description: as §1

[7] = biological target: T3, mouse BCMA-MFC (BCMA with C-terminal …); experiment: SPR Biacore, 25 C, mAb captured via anti-hFc
Description: as §1

[8] = biological target: T4, human BCMA-MMH (extracellular domain of …); experiment: SPR Biacore, 25 C, mAb captured via anti-hFc
Description: as §1

Binder	Median EC50, % Survival of H929 target cells, cynomolgus effector cells [1] [nM]	Median EC50, % T activation with H929 target cells, cynomolgus effector cells [1] [nM]	EC50 [2] [nM]	EC50, Jurkat/NFATLuc reporter activation with MOLP-8 cells [3] [nM]	EC50, Jurkat/NFATLuc reporter activation with RPMI-8226 cells [3] [nM]	EC50, Jurkat/NFATLuc reporter activation with Raji cells [3] [nM]	90 nM mfBCMA.mmh Bind (RU) [4] [RU]	Kd [4] [nM]	t1/2 [4] [min]	30 nM hBCMA.mFc Bind (RU) [5] [RU]	Kd [5] [nM]	t1/2 [5] [min]	30 nM mfBCMA.mFc Bind (RU) [6] [RU]	Kd [6] [nM]	t1/2 [6] [min]	30 nM mBCMA.mFc Bind (RU) [7] [RU]	binding result [7]	90 nM hBCMA.mmh Bind (RU) [8] [RU]	Kd [8] [nM]	t1/2 [8] [min]	further results
bsAb25441D bispecific antibody (REGN5458), anti-BCMA x anti-CD3 (bispecific antibody, human IgG4 S228P, kappa, Anti-BCMA arm from mAb21581, anti-CD3 arm and common light chain from mAb7221G; also called bsAb25441D9; mAb25441D) heavy 1: EVQLVESGGGLVQPGGSLRLSCAASGFTFSNFWMTWVRQAPGKGLEWVANMNQDGSEKYYVDSVKGRFTISRDNAKSSLYLQMNSLRAEDTAVYYCARDREYCISTSCYDDFDYWGQGTLVTVSSASTKGPSVFPLAPCSRSTSESTAALGCLVKDYFPEPVTVSWNSGALTSGVHTFPAVLQSSGLYSLSSVVTVPSSSLGTKTYTCNVDHKPSNTKVDKRVESKYGPPCPPCPAPPVAGPSVFLFPPKPKDTLMISRTPEVTCVVVDVSQEDPEVQFNWYVDGVEVHNAKTKPREEQFNSTYRVVSVLTVLHQDWLNGKEYKCKVSNKGLPSSIEKTISKAKGQPREPQVYTLPPSQEEMTKNQVSLTCLVKGFYPSDIAVEWESNGQPENNYKTTPPVLDSDGSFFLYSRLTVDKSRWQEGNVFSCSVMHEALHNHYTQKSLSLSLGK heavy 2: EVQLVESGGGLVQPGRSLRLSCAASGFTFDDYSMHWVRQAPGKGLEWVSGISWNSGSKGYADSVKGRFTISRDNAKNSLYLQMNSLRAEDTALYYCAKYGSGYGKFYHYGLDVWGQGTTVTVSSASTKGPSVFPLAPCSRSTSESTAALGCLVKDYFPEPVTVSWNSGALTSGVHTFPAVLQSSGLYSLSSVVTVPSSSLGTKTYTCNVDHKPSNTKVDKRVESKYGPPCPPCPAPPVAGPSVFLFPPKPKDTLMISRTPEVTCVVVDVSQEDPEVQFNWYVDGVEVHNAKTKPREEQFNSTYRVVSVLTVLHQDWLNGKEYKCKVSNKGLPSSIEKTISKAKGQPREPQVYTLPPSQEEMTKNQVSLTCLVKGFYPSDIAVEWESNGQPENNYKTTPPVLDSDGSFFLYSRLTVDKSRWQEGNVFSCSVMHEALHNRFTQKSLSLSPGK light: not shown	0.0234	0.0683	32	1.4	0.61	1.6	14.8	49.9	1.3	107	≤ 0.0223	≤ 1160	108	0.167	131	2.7	no binding (tested: 30 nM)	19.9	1.06	13.2	–
bsAb25442D bispecific antibody (REGN5459), anti-BCMA x anti-CD3 (bispecific antibody, human IgG4 S228P, kappa, Anti-BCMA arm from mAb21581, anti-CD3 arm and common light chain from mAb7221G20; also called mAb25442D; mAb25442D-A647) heavy 1: EVQLVESGGGLVQPGGSLRLSCAASGFTFSNFWMTWVRQAPGKGLEWVANMNQDGSEKYYVDSVKGRFTISRDNAKSSLYLQMNSLRAEDTAVYYCARDREYCISTSCYDDFDYWGQGTLVTVSSASTKGPSVFPLAPCSRSTSESTAALGCLVKDYFPEPVTVSWNSGALTSGVHTFPAVLQSSGLYSLSSVVTVPSSSLGTKTYTCNVDHKPSNTKVDKRVESKYGPPCPPCPAPPVAGPSVFLFPPKPKDTLMISRTPEVTCVVVDVSQEDPEVQFNWYVDGVEVHNAKTKPREEQFNSTYRVVSVLTVLHQDWLNGKEYKCKVSNKGLPSSIEKTISKAKGQPREPQVYTLPPSQEEMTKNQVSLTCLVKGFYPSDIAVEWESNGQPENNYKTTPPVLDSDGSFFLYSRLTVDKSRWQEGNVFSCSVMHEALHNHYTQKSLSLSLGK heavy 2: EVQLVESGGGLVQPGRSLRLSCAASGFTFDDYSMHWVRQAPGKGLEWVSGISWNSGSIGYADSVKGRFTISRDNAKNSLYLQMNSLRAEDTALYYCAKYGSGYGKFYYYGMDVWGQGTTVTVSSASTKGPSVFPLAPCSRSTSESTAALGCLVKDYFPEPVTVSWNSGALTSGVHTFPAVLQSSGLYSLSSVVTVPSSSLGTKTYTCNVDHKPSNTKVDKRVESKYGPPCPPCPAPPVAGPSVFLFPPKPKDTLMISRTPEVTCVVVDVSQEDPEVQFNWYVDGVEVHNAKTKPREEQFNSTYRVVSVLTVLHQDWLNGKEYKCKVSNKGLPSSIEKTISKAKGQPREPQVYTLPPSQEEMTKNQVSLTCLVKGFYPSDIAVEWESNGQPENNYKTTPPVLDSDGSFFLYSRLTVDKSRWQEGNVFSCSVMHEALHNRFTQKSLSLSPGK light: not shown	0.0692	0.158	4710	11	2.6	7.4	12.7	38.8	1.3	96.8	≤ 0.0223	≤ 1160	97	0.148	162	2.4	no binding (tested: 30 nM)	17	1.38	11.5	koff [4]: 0.00864 s⁻¹; kon [4]: 223000 M⁻¹ s⁻¹; koff [5]: ≤ 1e-05 s⁻¹; kon [5]: 449000 M⁻¹ s⁻¹; koff [6]: 7.15e-05 s⁻¹; kon [6]: 482000 M⁻¹ s⁻¹; koff [8]: 0.00101 s⁻¹; kon [8]: 730000 M⁻¹ s⁻¹

Source: patent US20210206865A1 (Regeneron, published 2021)
